# Where two headings read alike, the source gives them in different places.
# T1: Pum-HD (Drosophila melanogaster, UniProt P25822 1093-1426)
# T1 sequence: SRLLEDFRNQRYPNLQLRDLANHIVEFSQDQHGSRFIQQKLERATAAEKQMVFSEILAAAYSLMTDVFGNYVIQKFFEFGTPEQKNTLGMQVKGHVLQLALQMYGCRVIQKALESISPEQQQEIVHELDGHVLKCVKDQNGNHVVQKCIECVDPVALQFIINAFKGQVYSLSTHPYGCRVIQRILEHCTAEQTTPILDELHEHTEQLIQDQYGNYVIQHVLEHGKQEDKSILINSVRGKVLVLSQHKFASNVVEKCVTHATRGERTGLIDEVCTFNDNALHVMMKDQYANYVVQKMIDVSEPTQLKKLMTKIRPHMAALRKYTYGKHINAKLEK
# T2: Brat-NHL (Drosophila melanogaster, UniProt Q8MQJ9 756-1037)
# T2 sequence: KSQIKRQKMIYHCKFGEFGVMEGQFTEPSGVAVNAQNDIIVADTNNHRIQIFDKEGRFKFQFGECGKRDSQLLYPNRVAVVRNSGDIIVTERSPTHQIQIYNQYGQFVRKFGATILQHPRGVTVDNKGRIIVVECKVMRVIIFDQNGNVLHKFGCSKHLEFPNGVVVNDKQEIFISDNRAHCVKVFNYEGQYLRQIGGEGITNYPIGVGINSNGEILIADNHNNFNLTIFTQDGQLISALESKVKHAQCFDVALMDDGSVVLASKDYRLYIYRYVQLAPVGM
# T3: Pum-HD;Brat-NHL;Nanos-ZnF (Drosophila melanogaster;Drosophila …, UniProt P25822;Q8MQJ9;P25724 1093-1426;756-1037;301-392, ||)
# T3 sequence 1: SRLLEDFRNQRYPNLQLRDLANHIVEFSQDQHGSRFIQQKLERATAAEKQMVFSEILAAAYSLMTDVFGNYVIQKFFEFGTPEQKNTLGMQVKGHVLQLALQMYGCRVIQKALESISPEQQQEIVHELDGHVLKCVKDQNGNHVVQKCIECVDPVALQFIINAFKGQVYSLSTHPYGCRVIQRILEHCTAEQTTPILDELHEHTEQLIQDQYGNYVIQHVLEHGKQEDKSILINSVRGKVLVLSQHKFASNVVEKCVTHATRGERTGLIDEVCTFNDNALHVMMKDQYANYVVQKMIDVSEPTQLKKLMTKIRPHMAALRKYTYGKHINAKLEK
# T3 sequence 2: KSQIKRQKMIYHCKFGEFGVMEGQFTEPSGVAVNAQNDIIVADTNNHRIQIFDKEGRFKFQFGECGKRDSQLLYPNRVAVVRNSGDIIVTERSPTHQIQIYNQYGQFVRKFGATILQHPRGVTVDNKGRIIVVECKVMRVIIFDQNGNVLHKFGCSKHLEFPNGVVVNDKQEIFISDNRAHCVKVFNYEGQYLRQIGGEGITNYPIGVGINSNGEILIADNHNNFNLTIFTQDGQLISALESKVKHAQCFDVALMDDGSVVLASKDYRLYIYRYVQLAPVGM
# T3 sequence 3: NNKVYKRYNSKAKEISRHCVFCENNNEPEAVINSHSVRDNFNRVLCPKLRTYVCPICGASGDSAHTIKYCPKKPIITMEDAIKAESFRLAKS
# T4: Nanos-ZnF (Drosophila melanogaster, UniProt P25724 301-392)
# T4 sequence: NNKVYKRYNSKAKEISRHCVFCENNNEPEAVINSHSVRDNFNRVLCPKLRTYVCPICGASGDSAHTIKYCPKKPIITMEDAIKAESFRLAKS
# T5: HD domain of Pumilio (Pum-HD) (Drosophila, UniProt P25822 1093-1426)
# T5 sequence (looked up): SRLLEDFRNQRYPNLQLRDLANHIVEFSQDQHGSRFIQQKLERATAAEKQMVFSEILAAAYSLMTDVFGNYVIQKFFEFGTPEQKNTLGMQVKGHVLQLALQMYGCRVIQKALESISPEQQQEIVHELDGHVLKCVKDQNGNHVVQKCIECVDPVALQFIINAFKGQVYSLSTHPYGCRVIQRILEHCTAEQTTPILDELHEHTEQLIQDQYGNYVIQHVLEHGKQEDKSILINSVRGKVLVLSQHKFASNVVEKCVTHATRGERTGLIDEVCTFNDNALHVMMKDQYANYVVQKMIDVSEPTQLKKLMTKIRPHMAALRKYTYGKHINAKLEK
# Legend:
# Pum-HD [1] = molecular target: T1, Pum-HD; assay: ITC
# Pum-HD [2] = molecular target: T1, Pum-HD; assay: ITC; remark: listed apart in the source
# Pum-HD [3] = molecular target: T1, Pum-HD; assay: ITC; remark: listed apart in the source
# Brat-NHL [4] = molecular target: T2, Brat-NHL; assay: ITC
# Brat-NHL [5] = molecular target: T2, Brat-NHL; assay: ITC; remark: listed apart in the source
# Brat-NHL [6] = molecular target: T2, Brat-NHL; assay: ITC; remark: listed apart in the source
# Pum-HD [7] = molecular target: T1, Pum-HD; assay: ITC; remark: listed apart in the source
# [8] = molecular target: T3, Pum-HD;Brat-NHL;Nanos-ZnF; assay: SEC-MALLS, NMR, SAXS/SANS
# Brat-NHL [9] = molecular target: T2, Brat-NHL; assay: ITC; remark: listed apart in the source
# Brat-NHL [10] = molecular target: T2, Brat-NHL; assay: ITC; remark: listed apart in the source
# Brat-NHL [11] = molecular target: T2, Brat-NHL; assay: ITC; remark: listed apart in the source
# Nanos-ZnF = molecular target: T4, Nanos-ZnF; assay: ITC
# Pum-HD [12] = molecular target: T1, Pum-HD; assay: ITC; remark: listed apart in the source
# Pum-HD [13] = molecular target: T1, Pum-HD; assay: ITC; remark: listed apart in the source
# [14] = molecular target: T5, HD domain of Pumilio (Pum-HD); assay: SEC + SEC-MALS
# Pum-HD [15] = molecular target: T1, Pum-HD; assay: ITC; remark: listed apart in the source
# Pum-HD [16] = molecular target: T1, Pum-HD; assay: ITC; remark: listed apart in the source
binder,measurement,setting,value
UGUACAUA (ssRNA) [BoxB],Kd,Pum-HD [1],2 ± 2 nM
same,Kd,Pum-HD [2],6.6 ± 4 nM
same,Kd,Pum-HD [3],8.1 ± 1.7 nM
UUGUUG (ssRNA) [BoxA],Kd,Brat-NHL [4],1100 ± 300 nM
same,Kd,Brat-NHL [5],1000 ± 300 nM
same,Kd,Brat-NHL [6],800 ± 200 nM
same,binding result,Pum-HD [7],no binding
UUGUUGUCGAAAAU (ssRNA) [NRE2 minus BoxB],Kd,Pum-HD [1],1200 ± 80 nM
same,Kd,Pum-HD [2],1000 ± 20 nM
UUGUUGUCGAAAAUUGUACAUAA (structured_RNA) [NRE2 (23-mer)],Kd,Brat-NHL [4],370 ± 100 nM
same,Kd,Brat-NHL [5],320 ± 100 nM
same,Kd,Brat-NHL [6],1200 ± 200 nM
same,binding result,[8],binds
same,Kd,Brat-NHL [9],900 nM
same,Kd,Brat-NHL [10],200 nM
same,Kd,Brat-NHL [11],1400 nM
same,binding result,Nanos-ZnF,no binding
same,Kd,Pum-HD [12],2 nM
same,Kd,Pum-HD [13],15 nM
"ZnF domain of Nanos (Nanos-ZnF) (domain or fragment, Drosophila, UniProt P25724 301-392, looked up) NNKVYKRYNSKAKEISRHCVFCENNNEPEAVINSHSVRDNFNRVLCPKLRTYVCPICGASGDSAHTIKYCPKKPIITMEDAIKAESFRLAKS",stoichiometry N,[14],1
UCGAAAAUUGUACAUAA (ssRNA) [NRE2 minus BoxA],Kd,Pum-HD [15],10 ± 0.3 nM
same,Kd,Pum-HD [16],11 ± 0.6 nM
UUGUUGUC (ssRNA) [BoxAext],binding result,Pum-HD [7],no binding

# — paper PMC8421216 (Nucleic Acids Research, 2020)
